This experiment concerns the target fiber receptor (cellular receptor for wild-type adenoviral fiber protein). Briefly: competition on A549 cells; labelled competitor GV10 UTV; soluble fiber at 0 to about 10 ug/ml.

For soluble wild-type fiber protein, the percent of GV10 UTV binding inhibited is 40%.

These data come from patent US20030022355A1.
